In the RNAGym collection of RNA variant scans (doi:10.1073/pnas.2313332121):

B1: TPR t1 (parent)
chain: GACCAAUCUGCCCUCAGAGCUCGAGAACAUCUUCGGAUGCAGAGGAGGCAGGCUUCGGUGGCGCGAUAGCGCCAACGUCCUCAACCUCCAAUGCAUCCCACCACAUGAUGAUGCCUGAAGAGCCUUGGUUUUUUG

Variants of: B1
Experiment: polymerase ribozyme fitness, log enrichment relative to wild type (log ratio); higher = more active; in vitro selection for triplet polymerase activity
In short: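 Libraries of mutants in each subunit of a heterodimeric triplet polymerase ribozyme were generated by PCR and transcribed. In triplicate, each went through one in vitro selection round: annealing with biotinylated primer, partner subunit and triplets; frozen incubation at −7 °C; gel excision of extended constructs; streptavidin-bead capture; RT-PCR. Fitness, taken from Illumina sequencing of input and output libraries, is the logarithm of a genotype's enrichment over wild-type enrichment, averaged across replicates with inverse-variance weights. The logarithm is base 2, and genotypes needed ≥10 input reads and ≥1 read per output to be kept.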

| Variant | polymerase ribozyme fitness (log ratio) |
| --- | --- |
| A37U U59A G61C G93U A95G U130G | -5.82 |
| G17A G113A | -3.43 |
| C4U C8A C53U G69U U96G G128C | -1.46 |
| A18C U55A G57C C70G C124A | -6.54 |
| A16G G39A C115A | -2.22 |
| A29G G71U A83U | -1.51 |
| C85U U109A A121G | -4.29 |
| C20G G63A C102A U106C G120A U126A | -7.38 |
| A6C G48C | -1.5 |
| C13U C76U C86G | -2.13 |
| A5C G71C C89U G117U U131C | -5.27 |
| A41C U92G G120U U129C | -2.62 |
| C28U G69A | -4.67 |
| A91C U96G | -1.78 |
| A5C C11G U87G C89A G120C | -0.971 |
| G10C G42C G61C C123A G128A | -6.33 |
| C114G U126G | -4.32 |
| G44A G113C | -3.16 |
| U129A U130C | -0.653 |
| G42C C79U C82G C85G G110C | -5.74 |
| C72U C94G U132A | -1.02 |

| Variant | polymerase ribozyme fitness (log ratio) |
| --- | --- |
| C98U A108G | -6.36 |
| G39A A75U G110C | -5.51 |
| G71A G93C A95C | -2.61 |
| A29C C124A | -0.296 |
| C11U A27U U32G A37U C62A U109A | -5.82 |
| C12G A29C | -1.57 |
| C34G G36A | -6.25 |
| G71A A111C A118U | -0.257 |
| A46U A84C C104A G128U | -4.76 |
| C56U U126A | -1.39 |
| C73U C86U | 0.0966 |
| C73G A91G | -2.69 |
| C8G C12U C15U G25A A27U G42C G61A U78C U112A U125A U131A | -6.3 |
| C62A C94A | -2.2 |
| A18U G93C C97U G128U | -5.92 |
| C22A C73U | -5.07 |
| C56U C85A | -1.96 |
| C11U A18C C82A C104U | -2.34 |
| G45C A118G A121U | -1.69 |
| G69U C98U U112G | -1.16 |
| A41U G117C | -4.87 |

| Variant | polymerase ribozyme fitness (log ratio) |
| --- | --- |
| C11U C34U C86G C102U A121U | -1.28 |
| G35U G113C | -7.04 |
| C89G G113C | -3.04 |
| C11G G71A C80G G128A | -6.67 |
| C12G U21G A111U | -3.89 |
| G61C C123U | -0.994 |
| C72A G77A C89U U106C | -1.11 |
| C28U C101A C123G G128U | -3.71 |
| G61C G71U | -3.13 |
| G60C G117C | -4.28 |
| A37G C86A | -1.81 |
| C40U C85A G113C | -3.42 |
| C53U G61A A74U G127C | -1.43 |
| G47A G58C G71U C79U U130C | -0.309 |
| C104A A118U U125G U130A | -3.67 |
| C31G G42C A111U | -6.49 |
| U33A A37U U55C G63U A100C | -7.2 |
| U7C A91U G117U | -2.74 |
| C70U G113A | -1.39 |
| G23U A43U G60A | -7.42 |
| U32C C98A U106A | -6.32 |

| Variant | polymerase ribozyme fitness (log ratio) |
| --- | --- |
| C20U A90U G93A | -2.41 |
| C56U U125C | -2.74 |
| A6U C70U C88A U129C | -1.84 |
| A41U C49A A50U U55C G60U C115U | -5.28 |
| G39U G48C U78G G113U | -4.42 |
| A27U G120U | -2.65 |
| C11G G44C C86G U126A | -2.2 |
| C64A G65A C97U G120A | -5.01 |
| C8G C70G A100C C123A | -2.51 |
| C40G A43U U59A C70A C114A G117U | -6.29 |
| G36A C73U G127C | -2.76 |
| A18C C101A C123U G127A | -4.43 |
| U55A C73U C85A C115G | -3.38 |
| G71C G122A | -2.06 |
| U59G C72U C82A G110A | -1.21 |
| C13U G63A U96A | -1.68 |
| U78A A95U U112G U133A | 0.61 |
| C64U C72G U78A G127U U129C | -1.9 |
| C73U A108U | -5.75 |
| A46U G61U A111G | -0.291 |
